Experimental findings from patent US20250250355A1 (BIOSION, published 2025) are described below.

Read-outs that look alike come from different tables or passages of the source.

The target of test [1] is T1, full length human SIRPβ on cell membranes (HEK293-SIRPβ cells; 293F cells expressing human SIRPβ) (human, UniProt O00241 30-398).
T1 construct: whole, on cells; also called cell surface human SIRPβ
Briefly: cell based binding FACS on 293F cells expressing human SIRPβ, MFI.

Test [2] concerns the target T2, human SIRPα protein (soluble, used on 293F-CD47 cells) (human, UniProt P78324 31-370, limits assumed). Briefly: cell based blocking FACS on 293F-CD47 cells; soluble human SIRPα protein blocked from binding cell surface human CD47, MFI.
In test [3] the target is T3, full length human SIRPγ endogenously expressed on Jurkat cells (human, UniProt Q9P1W8 29-387).
T3 construct: whole, on cells; also called human SIRPγ expressed on Jurkat cells
Briefly: cell based binding FACS on Jurkat cells (endogenous human SIRPγ), MFI; curve not visible in the scan.

In test [4] the target is T4, full length human SIRPα on cell membranes (HEK293-SIRPα cells; 293F-SIRPα cells) (human, UniProt P78324 31-504).
T4 construct: whole, on cells; also called cell surface human SIRPα; cell surface SIRPα
Briefly: cell based blocking FACS on 293F-SIRPα cells; blocked ligand: human CD47 protein (CD47-Fc), MFI.

The target of test [5] is T1, full length human SIRPβ on cell …. Briefly: cell based binding FACS on HEK293-SIRPβ cells, MFI; curve not visible in the scan.
The target of the next test is T5, mouse SIRPα-his (mouse, UniProt P97797 35-363, limits assumed).
T5 chain: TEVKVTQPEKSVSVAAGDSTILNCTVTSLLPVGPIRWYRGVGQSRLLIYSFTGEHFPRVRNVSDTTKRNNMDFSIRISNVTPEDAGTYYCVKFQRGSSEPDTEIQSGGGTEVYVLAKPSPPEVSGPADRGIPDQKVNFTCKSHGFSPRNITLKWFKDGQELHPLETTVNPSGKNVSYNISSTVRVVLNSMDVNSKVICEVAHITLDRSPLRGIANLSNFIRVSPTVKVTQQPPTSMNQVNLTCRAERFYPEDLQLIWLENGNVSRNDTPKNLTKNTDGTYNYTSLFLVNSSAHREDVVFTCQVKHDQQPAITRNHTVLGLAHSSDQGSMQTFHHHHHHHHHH
Briefly: indirect ELISA on coated mouse SIRPα-his, OD(450-630). Background: ELISA stands for enzyme-linked immunosorbent assay.

Test [6] has as its target T4, full length human SIRPα on cell …. Briefly: cell based binding FACS on HEK293-SIRPα cells, MFI; curve not visible in the scan.
Test [7] deals with human SIRPα-isoform 2-his protein (human). Briefly: indirect ELISA on coated human SIRPα-isoform 2-his, OD(450-630).
The target of another test is human SIRPα-his protein (human, UniProt P78324 31-370). Briefly: competitive ELISA on coated human SIRPα-his; blocked ligand: biotin-labeled human CD47-his, OD(450-630).
In test [8] the target is T4, full length human SIRPα on cell …. Briefly: cell based binding FACS on 293F cells expressing human SIRPα, MFI.
The target of test [9] is T3, full length human SIRPγ endogenously …. Briefly: cell based binding FACS on Jurkat cells (endogenous human SIRPγ), MFI; plateau at MFI about 330.
Test [10] concerns the target T4, full length human SIRPα on cell …. Briefly: cell based binding FACS on 293F cells expressing human SIRPα, MFI. This is another data set of the same source.
The target of test [11] is T6, recombinant human SIRPα-Fc protein (human, biotin-labeled (sites not given)).
T6 construct: also called biotin-labeled human SIRPα-Fc protein
Briefly: capture ELISA, antibody captured on anti-mouse IgG F(ab')2, biotin-labeled human SIRPα-Fc in solution, OD(450-630).

Test [12] addresses human SIRPα-isoform 2-his protein (human). Briefly: indirect ELISA on coated human SIRPα-isoform 2-his, OD(450-630). The source holds these as a separate data set.
The target in test [13] is T7, human SIRPα-V8-his protein (human, UniProt P78324 31-370, limits assumed). Briefly: indirect ELISA on coated human SIRPα-V8-his, OD(450-630).
Test [14] addresses T2, human SIRPα protein (soluble, used on …). Briefly: cell based blocking FACS on 293F-CD47 cells; soluble human SIRPα protein blocked from binding cell surface human CD47, MFI. This is another data set of the same source.
In test [15] the target is T3, full length human SIRPγ endogenously …. Briefly: cell based binding FACS on Jurkat cells (endogenous human SIRPγ), MFI; plateau at MFI about 325.
The target of test [16] is T7, human SIRPα-V8-his protein. Briefly: indirect ELISA on coated human SIRPα-V8-his, OD(450-630); curve not visible in the scan.
The target of test [17] is T1, full length human SIRPβ on cell …. Briefly: cell based binding FACS on 293F cells expressing human SIRPβ, MFI. The source holds these as a separate data set.
Test [18] concerns the target T4, full length human SIRPα on cell …. Briefly: cell based blocking FACS on 293F-SIRPα cells; blocked ligand: human CD47 protein (CD47-Fc), MFI. This is another data set of the same source.
Test [19] concerns the target human SIRPα-isoform 2-his protein (human). Briefly: indirect ELISA on coated human SIRPα-isoform 2-his, OD(450-630); plateau at OD about 1.0.

B1: KWAR23 (antibody, human IgG4 S228P, kappa, V domains shown)
VH: EVQLQQSGAELVKPGASVKLSCTASGFNIKDYYIHWVQQRTEQGLEWIGRIDPEDGETKYAPKFQDKATITADTSSNTAYLHLSSLTSEDTAVYYCARWGAYWGQGTLVTVSA
VL: QIVLTQSPAIMSASPGEKVTLTCSASSSVSSSYLYWYQQKPGSSPKLWIYSTSNLASGVPARFSGSGSGTSYSLTISSMEAEDAASYFCHQWSSYPRTFGAGTKLELKR
notes: also called BM
In general, EC50 refers to the concentration at which the effect is half-maximal. The IC50 is the point on the concentration scale where inhibition reaches its midpoint. With B1, the concentration giving a half-maximal response (EC50) was found to be 0.164 nM in test [1]; 0.0102 nM in test [3]; 0.272 nM in [5]; 0.383 nM in test [6]; 0.409 nM in [7]; 0.307 nM in test [8]. Further, the EC50 in test [9] was 0.00724 nM; in test [10], 0.309 nM; in test [11], 0.0774 nM; in test [12] it was 0.307 nM; in test [13] it was 0.255 nM; in [15] it was 0.00761 nM. Further, the EC50 is 0.339 nM in test [16], 0.156 nM in test [17] and 0.436 nM in test [19]. In addition, the 50% inhibitory concentration (IC50) in test [2] was found to be 0.241 nM; in test [4], 0.731 nM; with human SIRPα-his protein, 2 nM; in test [14] it was 0.25 nM; in test [18] it was 0.753 nM. For the same molecule, in the test with mouse SIRPα-his, the binding result is recorded as “no binding (tested: ~67 nM)”.
